Test [1] addresses T1, IRTA4, full length transmembrane form with N-terminal myc tag, expressed on transfected CHO cells (human, UniProt Q96LA5 20-508).
T1 construct: Full length cDNA in CHO cells; also called human IRTA-4; CHO line transfected with IRTA4; not shown: myc tag at the N-terminus
T1 sequence: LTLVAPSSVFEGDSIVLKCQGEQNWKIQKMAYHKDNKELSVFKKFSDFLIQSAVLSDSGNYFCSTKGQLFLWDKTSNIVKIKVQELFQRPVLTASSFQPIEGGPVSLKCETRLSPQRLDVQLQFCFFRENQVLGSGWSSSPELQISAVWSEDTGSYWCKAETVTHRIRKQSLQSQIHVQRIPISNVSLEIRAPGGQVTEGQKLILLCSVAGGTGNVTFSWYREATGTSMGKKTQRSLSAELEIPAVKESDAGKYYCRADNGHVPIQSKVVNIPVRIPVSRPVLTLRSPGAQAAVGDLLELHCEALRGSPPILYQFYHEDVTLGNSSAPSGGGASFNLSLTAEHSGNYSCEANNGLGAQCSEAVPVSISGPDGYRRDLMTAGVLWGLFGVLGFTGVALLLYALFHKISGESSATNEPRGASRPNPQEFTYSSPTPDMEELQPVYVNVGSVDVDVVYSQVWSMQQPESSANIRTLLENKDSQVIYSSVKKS
Briefly: flow cytometry on IRTA4-transfected CHO cells, antibody at 10 µg/ml, FITC anti-human IgG detection, GMFI. From the text: (§1) Chinese hamster ovary (CHO) cell lines that express one of each of the five IRTA proteins at the cell surface were developed and used to determine the specificity of the IRTA4 monoclonal antibodies by flow cytometry. CHO cells were transfected with expression plasmids containing full length cDNA encoding transmembrane forms of IRTA1, IRTA2, IRTA3, IRTA4, or IRTA5. In addition, the transfected proteins contained a myc tag at the N-terminus for detection by anti-myc antibody. Binding of the two anti-IRTA4 monoclonal antibodies was assessed by incubating the transfected cells with each of the IRTA4 Abs at a concentration of 10 μg/ml. The cells were washed and binding was detected with a FITC-labeled anti-human IgG Ab. A murine anti-myc Ab followed by labeled anti-murine IgG was used as the positive control. Secondary antibody alone was used as a negative control. The results are depicted in FIG. 7. The IRTA4 monoclonal antibodies 9G11 and 13B1 bound to the CHO line transfected with IRTA4 but not to CHO lines expressing IRTA1, 2, 3 or 5 as measured by the mean fluorescent intensity (MFI) of staining.
A general note: In flow cytometry, cells or beads pass a laser one at a time.

Test [2] concerns the target T2, IRTA1, full length transmembrane form with N-terminal myc tag, expressed on transfected CHO cells (human, UniProt Q96PJ5 20-515).
T2 construct: Full length cDNA in CHO cells; also called human IRTA-1; not shown: myc tag at the N-terminus
T2 sequence: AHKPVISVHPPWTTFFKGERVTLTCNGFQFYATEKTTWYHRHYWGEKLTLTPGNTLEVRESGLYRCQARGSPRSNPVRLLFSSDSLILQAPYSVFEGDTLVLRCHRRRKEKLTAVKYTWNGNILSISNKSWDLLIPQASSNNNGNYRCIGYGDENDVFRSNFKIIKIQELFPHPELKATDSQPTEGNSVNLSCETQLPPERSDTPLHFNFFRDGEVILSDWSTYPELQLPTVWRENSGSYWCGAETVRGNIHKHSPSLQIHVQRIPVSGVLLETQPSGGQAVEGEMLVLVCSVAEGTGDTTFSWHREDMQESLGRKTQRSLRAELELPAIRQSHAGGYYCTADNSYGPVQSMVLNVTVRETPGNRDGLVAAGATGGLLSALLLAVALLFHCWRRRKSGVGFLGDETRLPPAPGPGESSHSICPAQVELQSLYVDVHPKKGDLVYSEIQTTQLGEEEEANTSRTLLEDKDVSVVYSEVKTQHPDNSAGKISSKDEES
Briefly: flow cytometry on transfected CHO cells, GMFI.
Text: as §1

The target of test [3] is T3, IRTA2, full length transmembrane form with N-terminal myc tag, expressed on transfected CHO cells (human, UniProt Q96RD9 16-977).
T3 construct: Full length cDNA in CHO cells; also called human IRTA-2; not shown: myc tag at the N-terminus
T3 chain: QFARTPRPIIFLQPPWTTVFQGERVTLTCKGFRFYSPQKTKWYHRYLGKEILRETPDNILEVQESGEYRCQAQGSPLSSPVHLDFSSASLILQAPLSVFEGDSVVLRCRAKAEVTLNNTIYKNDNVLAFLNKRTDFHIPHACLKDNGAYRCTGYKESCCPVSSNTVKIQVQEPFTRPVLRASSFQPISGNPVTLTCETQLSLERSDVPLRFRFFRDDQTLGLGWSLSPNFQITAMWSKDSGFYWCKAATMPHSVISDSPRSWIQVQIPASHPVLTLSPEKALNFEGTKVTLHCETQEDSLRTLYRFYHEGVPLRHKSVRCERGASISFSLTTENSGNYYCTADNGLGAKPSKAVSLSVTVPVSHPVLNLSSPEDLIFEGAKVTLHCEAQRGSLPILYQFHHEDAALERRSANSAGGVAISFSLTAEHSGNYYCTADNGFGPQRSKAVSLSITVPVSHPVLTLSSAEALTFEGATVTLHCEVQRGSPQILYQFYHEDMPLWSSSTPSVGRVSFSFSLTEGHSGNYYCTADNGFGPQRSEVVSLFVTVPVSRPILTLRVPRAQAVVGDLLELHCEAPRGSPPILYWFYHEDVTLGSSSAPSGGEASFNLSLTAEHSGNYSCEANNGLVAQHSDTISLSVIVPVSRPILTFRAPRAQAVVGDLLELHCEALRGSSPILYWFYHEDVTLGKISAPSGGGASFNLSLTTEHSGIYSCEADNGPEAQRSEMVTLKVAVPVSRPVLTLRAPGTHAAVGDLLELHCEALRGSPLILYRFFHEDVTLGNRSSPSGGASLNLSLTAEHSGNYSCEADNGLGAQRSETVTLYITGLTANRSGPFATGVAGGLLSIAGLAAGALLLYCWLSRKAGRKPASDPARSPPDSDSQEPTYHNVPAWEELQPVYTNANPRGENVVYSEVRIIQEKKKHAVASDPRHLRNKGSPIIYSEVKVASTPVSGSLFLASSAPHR
Briefly: flow cytometry on transfected CHO cells, GMFI.
Text: as §1

Test [4] addresses T4, IRTA5, full length transmembrane form with N-terminal myc tag, expressed on transfected CHO cells (human, UniProt Q96LA6 17-429).
T4 construct: Full length cDNA in CHO cells; also called human IRTA-5; not shown: myc tag at the N-terminus
T4 sequence: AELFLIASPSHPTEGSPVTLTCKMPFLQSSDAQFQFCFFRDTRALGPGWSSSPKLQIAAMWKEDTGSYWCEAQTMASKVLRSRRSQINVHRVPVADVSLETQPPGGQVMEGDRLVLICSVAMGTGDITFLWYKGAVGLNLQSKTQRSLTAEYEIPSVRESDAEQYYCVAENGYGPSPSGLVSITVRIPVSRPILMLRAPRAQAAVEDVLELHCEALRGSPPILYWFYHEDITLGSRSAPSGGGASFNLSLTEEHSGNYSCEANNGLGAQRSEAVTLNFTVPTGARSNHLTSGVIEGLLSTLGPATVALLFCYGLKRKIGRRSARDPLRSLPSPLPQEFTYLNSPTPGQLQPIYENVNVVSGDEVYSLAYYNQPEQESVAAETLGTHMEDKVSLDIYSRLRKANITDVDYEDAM
Briefly: flow cytometry on transfected CHO cells, GMFI.
Text: as §1

Test [5] addresses T5, IRTA3, full length transmembrane form with N-terminal myc tag, expressed on transfected CHO cells (human, UniProt Q96P31 18-734).
T5 construct: Full length cDNA in CHO cells; also called human IRTA-3; not shown: myc tag at the N-terminus
T5 sequence: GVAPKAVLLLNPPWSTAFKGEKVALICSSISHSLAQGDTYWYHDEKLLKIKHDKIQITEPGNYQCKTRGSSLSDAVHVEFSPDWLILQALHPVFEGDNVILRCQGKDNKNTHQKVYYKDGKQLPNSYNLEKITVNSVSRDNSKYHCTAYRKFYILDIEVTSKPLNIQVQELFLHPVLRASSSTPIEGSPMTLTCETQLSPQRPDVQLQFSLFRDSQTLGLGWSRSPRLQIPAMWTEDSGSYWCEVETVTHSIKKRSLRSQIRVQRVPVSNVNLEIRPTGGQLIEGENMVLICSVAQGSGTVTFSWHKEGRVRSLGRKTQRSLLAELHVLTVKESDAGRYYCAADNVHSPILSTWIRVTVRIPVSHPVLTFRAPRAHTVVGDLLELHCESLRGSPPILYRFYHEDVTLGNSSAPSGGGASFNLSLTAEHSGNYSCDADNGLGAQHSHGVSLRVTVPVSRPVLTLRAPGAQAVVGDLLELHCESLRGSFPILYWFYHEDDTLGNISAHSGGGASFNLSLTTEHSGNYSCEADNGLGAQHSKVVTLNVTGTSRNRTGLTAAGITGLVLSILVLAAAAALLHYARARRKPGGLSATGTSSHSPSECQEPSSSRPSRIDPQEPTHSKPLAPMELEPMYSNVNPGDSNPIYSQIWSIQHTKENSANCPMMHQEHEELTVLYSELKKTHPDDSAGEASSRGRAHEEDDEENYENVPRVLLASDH
The test can be described thus: flow cytometry on transfected CHO cells, GMFI.
Text: as §1

Test [6] deals with T6, IRTA4-C9 antigen (fusion protein composed of the extracellular domain of the IRTA4 linked to the carboxy … (human, UniProt P02699 340-348 (bovine entry))).
T6 construct: domain: carboxy terminal nine amino acids
T6 sequence: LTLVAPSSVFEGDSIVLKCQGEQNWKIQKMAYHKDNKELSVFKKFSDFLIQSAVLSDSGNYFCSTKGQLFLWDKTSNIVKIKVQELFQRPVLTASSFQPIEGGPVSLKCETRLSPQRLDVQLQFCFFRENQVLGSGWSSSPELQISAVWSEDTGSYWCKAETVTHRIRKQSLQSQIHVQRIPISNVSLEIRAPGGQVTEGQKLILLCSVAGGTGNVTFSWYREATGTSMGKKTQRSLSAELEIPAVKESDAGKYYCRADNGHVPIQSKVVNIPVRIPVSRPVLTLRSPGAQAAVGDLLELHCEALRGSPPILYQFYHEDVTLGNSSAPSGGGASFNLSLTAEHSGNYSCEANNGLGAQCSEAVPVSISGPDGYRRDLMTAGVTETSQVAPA
The test can be described thus: Biacore SPR, antibody captured by anti-human IgG on CM5 chip, IRTA4-C9 flowed at 50-400 nM, 1:1 Langmuir fit. As for the experimental part:
Anti-IRTA4 antibodies were characterized for affinities and binding kinetics by Biacore analysis (Biacore AB, Uppsala, Sweden). Purified anti-IRTA4 monoclonal antibodies were captured by anti-human IgG antibody covalently linked to a CM5 chip (carboxy methyl dextran coated chip) via primary amines, using standard amine coupling chemistry and kit provided by Biacore. Binding was measured by flowing the IRTA4-C9 antigen (a fusion protein composed of the extracellular domain of the IRTA4 linked to the carboxy terminal nine amino acids of rhodopsin) in HBS EP buffer (provided by Biacore AB) at concentrations of 400, 300, 200, 100, and 50 nM at a flow rate of 20 μl/min. The antigen-antibody association kinetics was followed for 10 minutes and the dissociation kinetics was followed for 10 minutes. The association and dissociation curves were fit to a 1:1 Langmuir binding model using BIAevaluation software (Biacore AB).

B1: 13B1 human monoclonal antibody (antibody, V domains shown)
VH: QVQLVQSGAEVKKPGASVKVSCKASGYNFNSYDISWVRQAAGQGLEWMGWMNPNSGYTSYAQKFQGRVTMTWNTSISTAYMELSSLRSEDSAVYYCAREGIVGAIGWFDPWGQGTLVTVSS
VL: DIQMTQSPSSVSASVGDRVTITCRASQGISSWLAWYQHKPGKAPKLLIYAASSLQSGVPSRFSGSGSGTDFTLTISSLQPEDFATYYCQQANSFPLTFGGGTKVEIK
notes: Hybridoma-derived fully human IgG with kappa light chain from KM mice; also called anti-IRTA4 HuMAb 13B1
In the case of B1, the binding result in test [1] is given as “binds”; in test [2], “no binding (tested: 10 µg/ml)”; in test [3], “no binding (tested: 10 µg/ml)”; in test [4], “no binding (tested: 10 µg/ml)”; in test [5], “no binding (tested: 10 µg/ml)”. Moreover, in test [6], binding was put at a Kd of 3.48 nM. For the same molecule, the dissociation rate constant (koff) (usually a measure of how fast the partners let go of each other) in test [6] was 0.000426 s⁻¹. Besides, in test [6], the kon (as a rule, a measure of how fast the partners come together) was 125000 M⁻¹ s⁻¹.

B2: 9G11 human monoclonal antibody (antibody, V domains shown)
VH: QVQLVQSGAEVKKPGASVKVSCKASGYTFTSYAMHWVRQAPGQRLEWMGWINVGNGNTRYSQKFQGRVTITRDTSASTAYMELSSLRSEDTAVYYCAREGSNGWHEDFDYWGQGTLVTVSS
VL: EIVLTQSPATLSLSPGERATLSCRASQSVSSYLAWYQQKPGQAPRLLIYDASNRATGIPARFSGSGSGTDFTLTISSLEPEDFAVYYCQQRSDWPPSLTFGGGTKVEIK
notes: Hybridoma-derived fully human IgG with kappa light chain from KM mice; also called anti-IRTA4 HuMAb 9G11
Regarding B2, the binding result was “binds” in test [1]; “no binding (tested: 10 µg/ml)” in test [2]; “no binding (tested: 10 µg/ml)” in test [3]; “no binding (tested: 10 µg/ml)” in test [4]; “no binding (tested: 10 µg/ml)” in test [5]. Further, binding in test [6] was put at a Kd of 2.8 nM. The molecule also came in with an off-rate (koff) in test [6] of 7.4e-05 s⁻¹. The kon in test [6] is 26300 M⁻¹ s⁻¹.

The values above are taken from patent US20080253962A1 (Bristol-Myers Squibb, published 2008).
